Assays:
[1] = molecular target: T1, myc-tagged full length Atg11 (S. cerevisiae, UniProt Q12527 1-1178); assay: co-IP; IP of myc-tagged Atg11 (anti-myc, Protein A magnetic beads), co-IP of HA-tagged Atg9; lysates of WT, atg13Δ, atg17Δ, atg29Δ and atg31Δ cells, log phase and starved; 25 mM Tris-HCl pH 7.2, 150 mM NaCl, 0.2% NP-40; conditions: partners not purified
T1 construct: Atg11, scaffolding protein of selective autophagy, yeast; also called Atg11-myc; myc-Atg11; source: yeast cells expressing myc-tagged Atg11, in lysate
T1 sequence (looked up): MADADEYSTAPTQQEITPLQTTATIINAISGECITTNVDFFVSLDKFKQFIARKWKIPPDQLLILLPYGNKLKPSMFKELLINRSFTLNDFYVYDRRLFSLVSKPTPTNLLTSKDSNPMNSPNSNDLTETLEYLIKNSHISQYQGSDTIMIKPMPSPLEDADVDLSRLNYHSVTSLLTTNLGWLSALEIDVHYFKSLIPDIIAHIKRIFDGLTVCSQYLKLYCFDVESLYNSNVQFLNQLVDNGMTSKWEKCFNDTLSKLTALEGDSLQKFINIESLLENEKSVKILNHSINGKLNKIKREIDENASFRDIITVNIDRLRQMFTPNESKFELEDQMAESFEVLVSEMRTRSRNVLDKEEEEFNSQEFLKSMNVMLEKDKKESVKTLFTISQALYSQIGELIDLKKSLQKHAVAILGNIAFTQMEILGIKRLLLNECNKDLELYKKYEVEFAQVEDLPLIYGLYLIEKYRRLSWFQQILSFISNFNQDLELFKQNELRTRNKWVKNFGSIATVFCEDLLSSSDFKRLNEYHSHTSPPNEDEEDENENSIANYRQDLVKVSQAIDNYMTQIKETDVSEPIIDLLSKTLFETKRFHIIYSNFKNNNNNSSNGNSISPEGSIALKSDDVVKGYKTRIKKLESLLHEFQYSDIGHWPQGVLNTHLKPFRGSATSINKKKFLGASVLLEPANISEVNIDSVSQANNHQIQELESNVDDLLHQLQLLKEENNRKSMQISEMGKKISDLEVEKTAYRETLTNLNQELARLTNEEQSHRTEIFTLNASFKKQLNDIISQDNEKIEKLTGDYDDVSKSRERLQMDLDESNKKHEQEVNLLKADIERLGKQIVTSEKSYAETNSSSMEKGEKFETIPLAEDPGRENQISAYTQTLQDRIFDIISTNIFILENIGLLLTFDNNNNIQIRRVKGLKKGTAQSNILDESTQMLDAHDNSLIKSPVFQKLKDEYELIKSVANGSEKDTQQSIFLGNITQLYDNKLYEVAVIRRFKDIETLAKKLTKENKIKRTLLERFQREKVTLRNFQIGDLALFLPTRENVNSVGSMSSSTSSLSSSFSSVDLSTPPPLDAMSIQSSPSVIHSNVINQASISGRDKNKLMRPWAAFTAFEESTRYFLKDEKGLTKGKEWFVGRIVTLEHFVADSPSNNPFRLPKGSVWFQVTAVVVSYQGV

[2] = molecular target: the molecule itself; assay: SEC; purified Atg11^ΔC on a Superose 6 column
[3] = molecular target: T2, recombinant purified Atg11 (Atg11-His6) (yeast, UniProt Q12527 1-1178, Atto565 label in the GUV experiments); assay: cross-linking; Sulfo-LC-SDA (spacer arm 12.5 Å) conjugated to primary amines of Atg32^SE, mixed with Atg11, 365 nm UV light for up to 15 min, SDS-PAGE; conditions: both partners purified
T2 construct: N-terminal residual glycine-proline from PreScission protease digestion; Atg11, yeast; expressed from pCoofy37-Atg11; measured molecular weight 136 kDa; also called His-tagged Atg11; Atg11^Atto565; source: E. coli BL21 (DE3), coexpressed with chaperones from pG-KJE8, purified (Ni-NTA, PreScission digestion, gel filtration); not shown: His6, C-terminal, kept
T2 sequence: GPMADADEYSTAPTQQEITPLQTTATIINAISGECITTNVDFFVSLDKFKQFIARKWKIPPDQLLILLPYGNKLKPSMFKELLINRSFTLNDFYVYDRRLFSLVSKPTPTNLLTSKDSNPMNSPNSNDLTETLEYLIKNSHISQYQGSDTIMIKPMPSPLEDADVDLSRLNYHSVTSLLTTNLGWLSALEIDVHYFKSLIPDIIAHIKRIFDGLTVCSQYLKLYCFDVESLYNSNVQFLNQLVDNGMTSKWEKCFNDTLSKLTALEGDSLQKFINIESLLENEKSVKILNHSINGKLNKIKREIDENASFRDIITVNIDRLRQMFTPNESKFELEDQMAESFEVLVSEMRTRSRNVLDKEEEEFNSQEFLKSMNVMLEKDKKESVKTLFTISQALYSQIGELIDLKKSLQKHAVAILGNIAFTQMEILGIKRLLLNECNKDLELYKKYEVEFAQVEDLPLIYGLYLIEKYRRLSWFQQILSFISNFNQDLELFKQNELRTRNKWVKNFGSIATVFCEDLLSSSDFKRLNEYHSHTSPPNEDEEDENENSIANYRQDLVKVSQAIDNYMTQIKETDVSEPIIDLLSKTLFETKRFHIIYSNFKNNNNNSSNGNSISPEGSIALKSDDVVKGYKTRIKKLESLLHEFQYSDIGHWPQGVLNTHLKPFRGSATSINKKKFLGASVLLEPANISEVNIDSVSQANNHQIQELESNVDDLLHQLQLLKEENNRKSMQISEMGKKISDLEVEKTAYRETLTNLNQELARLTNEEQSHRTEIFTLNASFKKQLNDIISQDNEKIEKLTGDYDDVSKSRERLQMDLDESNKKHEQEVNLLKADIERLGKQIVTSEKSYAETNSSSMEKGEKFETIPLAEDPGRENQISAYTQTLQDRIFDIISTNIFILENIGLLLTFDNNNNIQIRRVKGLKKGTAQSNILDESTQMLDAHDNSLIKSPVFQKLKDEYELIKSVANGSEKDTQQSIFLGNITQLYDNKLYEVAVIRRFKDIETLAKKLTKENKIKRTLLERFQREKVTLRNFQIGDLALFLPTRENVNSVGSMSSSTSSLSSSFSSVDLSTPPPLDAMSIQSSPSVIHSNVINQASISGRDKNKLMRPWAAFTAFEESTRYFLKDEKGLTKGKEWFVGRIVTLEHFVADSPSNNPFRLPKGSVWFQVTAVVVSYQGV

B1: HA-tagged Atg9 (natural protein, S. cerevisiae, UniProt Q12142 1-997, looked up)
chain: MERDEYQLPNSHGKNTFLSRIFGLQSDEVNPSLNSQEMSNFPLPDIERGSSLLHSTNDSREDVDENDLRVPESDQGTSTEEEDEVDEEQVQAYAPQISDGLDGDHQLNSVTSKENVLETEKSNLERLVEGSTDDSVPKVGQLSSEEEEDNEFINNDGFDDDTPLFQKSKIHEFSSKKSNTIEDGKRPLFFRHILQNNRPQRDTQKLFTSSNAIHHDKDKSANNGPRNINGNQKHGTKYFGSATQPRFTGSPLNNTNRFTKLFPLRKPNLLSNISVLNNTPEDRINTLSVKERALWKWANVENLDIFLQDVYNYYLGNGFYCIILEKILNICTLLFVVFVSTYMGHCVDYSKLPTSHRVSDIIIDKCYSNSITGFTKFFLWMFYFFVILKIVQLYFDVQKLSELQNFYKYLLNISDDELQTLPWQNVIQQLMYLKDQNAMTANVVEVKAKNRIDAHDVANRIMRRENYLIALYNSDILNLSLPIPLFRTNVLTKTLEWNINLCVMGFVFNESGFIKQSILKPSQREFTREELQKRFMLAGFLNIILAPFLVTYFVLLYFFRYFNEYKTSPGSIGARQYTPIAEWKFREYNELYHIFKKRISLSTTLANKYVDQFPKEKTNLFLKFVSFICGSFVAILAFLTVFDPENFLNFEITSDRSVIFYITILGAIWSVSRNTITQEYHVFDPEETLKELYEYTHYLPKEWEGRYHKEEIKLEFCKLYNLRIVILLRELTSLMITPFVLWFSLPSSAGRIVDFFRENSEYVDGLGYVCKYAMFNMKNIDGEDTHSMDEDSLTKKIAVNGSHTLNSKRRSKFTAEDHSDKDLANNKMLQSYVYFMDDYSNSENLTGKYQLPAKKGYPNNEGDSFLNNKYSWRKQFQPGQKPELFRIGKHALGPGHNISPAIYSTRNPGKNWDNNNNGDDIKNGTNNATAKNDDNNGNNDHEYVLTESFLDSGAFPNHDVIDHNKMLNSNYNGNGILNKGGVLGLVKEYYKKSDVGR
notes: Atg9, transmembrane autophagy protein, yeast; also called HA-Atg9; source: yeast cells expressing HA-tagged Atg9, in lysate
fold binding in atg17Δ against wild-type cells, upon starvation [1]: 4.1 fold

B2: recombinant purified Atg11^ΔC (residues 1-667) (domain or fragment, yeast, UniProt Q12527 1-667, looked up)
chain: MADADEYSTAPTQQEITPLQTTATIINAISGECITTNVDFFVSLDKFKQFIARKWKIPPDQLLILLPYGNKLKPSMFKELLINRSFTLNDFYVYDRRLFSLVSKPTPTNLLTSKDSNPMNSPNSNDLTETLEYLIKNSHISQYQGSDTIMIKPMPSPLEDADVDLSRLNYHSVTSLLTTNLGWLSALEIDVHYFKSLIPDIIAHIKRIFDGLTVCSQYLKLYCFDVESLYNSNVQFLNQLVDNGMTSKWEKCFNDTLSKLTALEGDSLQKFINIESLLENEKSVKILNHSINGKLNKIKREIDENASFRDIITVNIDRLRQMFTPNESKFELEDQMAESFEVLVSEMRTRSRNVLDKEEEEFNSQEFLKSMNVMLEKDKKESVKTLFTISQALYSQIGELIDLKKSLQKHAVAILGNIAFTQMEILGIKRLLLNECNKDLELYKKYEVEFAQVEDLPLIYGLYLIEKYRRLSWFQQILSFISNFNQDLELFKQNELRTRNKWVKNFGSIATVFCEDLLSSSDFKRLNEYHSHTSPPNEDEEDENENSIANYRQDLVKVSQAIDNYMTQIKETDVSEPIIDLLSKTLFETKRFHIIYSNFKNNNNNSSNGNSISPEGSIALKSDDVVKGYKTRIKKLESLLHEFQYSDIGHWPQGVLNTHLKPFRGSA
notes: Atg11, yeast, N-terminal fragment, residues 1-667; expressed from pCoofy37-Atg11^ΔC; molecular weight 78.2 kDa; Made from the same vector as full-length Atg11, so it may also carry a C-terminal His6 tag and an N-terminal Gly-Pro; also called purified Atg17-like domain of Atg11; source: E. coli BL21 (DE3), coexpressed with chaperones from pG-KJE8, purified
stoichiometry N [2]: 2

B3: Atg32^SE (Atg32^1-376 with the phosphomimetic mutation S114E) (domain or fragment, yeast, UniProt P40458 1-376, looked up)
chain: MVLEYQQREGKGSSSKSMPPDSSSTTIHTCSEAQTGEDKGLLDPHLSVLELLSKTGHSPSPMGQNLVTSIDISGNHNVNDSISGSWQAIQPLDLGASFIPERCSSQTTNGSILESSDTSEEEQELLQAPAADIINIIKQGQEGANVVSPSHPFKQLQKIISLPLPGKEKTPFNEQDDDGDEDEAFEEDSVTITKSLTSSTNSFVMPKLSLTQKNPVFRLLILGRTGSSFYQSIPKEYQSLFELPKYHDSATFPQYTGIVIIFQELREMVSLLNRIVQYSQGKPVIPICQPGQVIQVKNVLKSFLRNKLVKLLFPPVVVTNKRDLKKMFQRLQDLSLEYGEDVNEEDNDDEAIHTKSRSYCRNKKAENSKKKSPKSN
modifications: PacificBlue label in the GUV experiment; Sulfo-LC-SDA conjugated to primary amines in the cross-linking experiment
notes: Atg32, mitochondrial cargo receptor, yeast; N-terminal cytoplasmic domain, residues 1-376; also called Atg32^1-376,SE; Sulfo-LC-Atg32^SE
binding result [3]: binds

Source: publication PMC6687201, “Atg11 tethers Atg9 vesicles to initiate selective autophagy” (PLoS Biology, 2019)
